Ends that are not written are not given here. * marks the point of attachment. 125I = [125I]*
B1: [^125I-Tyr^10]-hGPR8L (1-23) (peptide)
peptide: WYKHVASPRY(125I)HTVGRAAGLLMGL-OH
B2: human homologue of GPR8 ligand peptide consisting of 23 residues, hGPR8L (1-23) (peptide)
peptide: WYKHVASPRYHTVGRAAGLLMGL-OH
notes: also called human GPR8 ligand (1-23)

How the values were obtained:
[1] = biological target: T1, TGR26, the rat-derived novel G protein-coupled receptor protein (rat, UniProt Q56UD9 1-329); assay: radioligand binding to membrane fraction of TGR26 expressing CHO cells, filtration, gamma counting
T1 construct: Expressed in CHO dhfr- cells from pAK-rGPR7; also called rat TGR26; TGR26 receptor
T1 sequence: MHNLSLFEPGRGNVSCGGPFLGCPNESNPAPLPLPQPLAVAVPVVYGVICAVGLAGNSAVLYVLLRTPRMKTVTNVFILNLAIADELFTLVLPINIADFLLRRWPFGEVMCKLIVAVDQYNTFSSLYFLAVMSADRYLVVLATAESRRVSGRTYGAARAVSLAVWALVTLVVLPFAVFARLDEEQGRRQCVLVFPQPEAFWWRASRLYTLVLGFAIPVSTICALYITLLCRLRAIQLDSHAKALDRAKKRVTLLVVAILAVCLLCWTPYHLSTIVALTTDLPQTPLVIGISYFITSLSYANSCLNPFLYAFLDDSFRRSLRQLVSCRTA
Description: (§1) Using [¹²⁵I-Tyr¹⁰]-hGPR8L (1-23) prepared by the method described in Reference Example 15 and a cell membrane fraction prepared from TGR26 expressing cells as described in Example 6, a receptor binding assay was carried out as follows.
(§2) Cell membrane fraction prepared from TGR26 expressing cells was diluted to various concentration with assay buffer (25 mM Tris-HCl, 5 mM EDTA, 0.05% CHAPS (3-[(3-Cholamidopropyl) Dimethyl-Ammonio]-1-Propanesulfonate), 0.1% BSA, 0.5 mM PMSF, 1 μg/ml Pepstatin, 20 μg/ml Leupeptin, 4 μg/ml E-64, pH 7.4), and 200 μl each of the diluent was dispensed into polypropilene test tube (Falcon 2053). In order to determine an amount of maximum binding, 2 μl of DMSO and 2 μl of 7 nM [¹²⁵I-Tyr¹⁰]-hGPR8L (1-23) were added to the membrane fraction solution. Further, in order to determine a non-specific binding, 2 μl of 100 μM hGPR8L (1-23)/DMSO solution and 2 μl of 7 nM [¹²⁵I-Tyr¹⁰]-hGPR8L (1-23) were added to the membrane fraction solution. The reaction was done at 25° C. for 75 minutes, and the reaction mixture was filtered by suction filtration using Whatman glassfilter (GF-F) treated with polyethyleneimine. […] After filtration, a radioactivity remaining on the filter was counted using γ-counter, and an amount of specific binding was estimated by subtracting an amount of non-specific binding from an amount of maximum binding. […]

[2] = biological target: T1, TGR26, the rat-derived novel G …; assay: competition with [125I-Tyr10]-hGPR8L (1-23) for membrane fraction of TGR26 expressing CHO cells
Description: as §1, §2

Binder | binding result [1] | IC50 [2] [nM]
B1 | binds | –
B2 | – | 0.12
